# Experimental data as given in paper PMC10172501, “Heparanase-2 protein and peptides have a protective effect on experimental glomerulonephritis and diabetic nephropathy” (Frontiers in Pharmacology, 2023).
# Entries after “also recorded” stand apart in the source; their conditions may differ.
# T1: recombinant active human HPSE1 (Homo sapiens, UniProt Q9Y251)
# T1 construct: recombinant active human HPSE1; purchased Bio-techne 7570-GH-005
# T1 sequence (Q9Y251 158-543 limits assumed): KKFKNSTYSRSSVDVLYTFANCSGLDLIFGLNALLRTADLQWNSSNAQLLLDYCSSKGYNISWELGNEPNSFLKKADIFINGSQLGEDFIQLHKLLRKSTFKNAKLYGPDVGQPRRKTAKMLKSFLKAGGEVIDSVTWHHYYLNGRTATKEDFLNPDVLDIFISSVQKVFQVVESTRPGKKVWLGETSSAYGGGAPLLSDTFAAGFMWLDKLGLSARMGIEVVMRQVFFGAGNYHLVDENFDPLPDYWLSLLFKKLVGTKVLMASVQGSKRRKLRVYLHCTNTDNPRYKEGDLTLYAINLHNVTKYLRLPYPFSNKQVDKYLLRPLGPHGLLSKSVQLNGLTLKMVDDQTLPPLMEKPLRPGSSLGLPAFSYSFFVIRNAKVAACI
# T1 sequence (Q9Y251 36-109 limits assumed): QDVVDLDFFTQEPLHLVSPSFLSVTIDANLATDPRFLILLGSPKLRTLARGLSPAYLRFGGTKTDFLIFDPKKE
# B1: HPSE2 protein: His-tagged mouse heparanase-2 protein produced by in vitro translation in HeLa lysate; b60 values from Kiyan et al. concern their protein (protein, UniProt B2RY83 1-592, looked up)
# chain: MRVLCAFPEAMASSSSRPPSCLALVALFLALLLHLSLSFHAGNRRPLPVDRATGLKEKTLILLDVSTKNPVRTVNENFLSLQLDPSIIHDGWLDFLSSKRLVTLARGLSPAFLRFGGKRTDFLQFQNLRNPAKSRGGPGPDYYLKNYEDDIVRSDVALDKQKGCKIAQHPDVMLELQREKASQMHLVLLKEQYSNTYSNLILTARSLDKLYNFADCSGLHLIFALNALRRNPNNSWNSSSALSLLKYSASKKYNISWELGNEPNNYRSIHGRAVNGSQLGKDYIQLKSLLQPIRVYSRASLYGPNIGRPRKNVIALLDGFMKVAGSTVDAVTWQHCYIDGRVVKVMDFLKTRLLDTLSDQIRKIQKVVNTYTPGKKIWLEGVVTTSAGGTNNLSDSYAAGFLWLNTLGMLANQGIDVVIRHSFFDHGYNHLVDQNFNPLPDYWLSLLYKRLIGPKVLAVHVAGLQRKPRPGRVIRDKLRIYAHCTNHHNHNYVRGSITLFIINLHRSRKKIKLAGTLRDKLVHQYLLQPYGQEGLKSKSVQLNGQPLVMVDDGTLPELKPRPLRAGRTLVIPPVTMGFYVVKNVNALACRYR
# modifications: full-length His tag
# notes: His-tagged mouse heparanase-2 protein produced by in vitro translation in HeLa lysate; b60 values from Kiyan et al. concern their protein
# What was measured:
# [1] = test system: HPSE1; conditions: ref Simeonovic et al., 2013; cited from earlier work
# From the text: Other HPSE1 inhibitors have been tested both in vitro and in vivo for their application in glomerular diseases as well. Administration of HPSE1 substrates, such as soluble HS, heparin, and low-molecular-weight heparins, all comprise the potential to reduce albuminuria. One example of such class of drugs is sulodexide, which is a highly purified mixture that consists for 80% of low-molecular-weight heparin and for 20% of dermatan sulfate ([Poplawska et al., 1997]).
# [2] = target: T1, recombinant active human HPSE1; assay: HPSE1 activity assay (inhibition of HPSE1 activity; commercial kit and in-house HS-coated plate assay); assay type: biochemical; conditions: for inhibition of HPSE1 activity, first screening experiment of all 30 HPSE2 peptides: data not shown, recombinant HPSE1
# Method: The inhibition of HPSE1 activity by HPSE2 protein and peptides was determined by the commercially available HPSE1 assay kit and an in-house developed HPSE1 activity assay, which was optimized by the use of recombinant active human HPSE1 (Bio-techne, Abingdon, United Kingdom, Cat#7570-GH-005). The in-house developed activity assay was performed as described previously ([Buijsers et al., 2020]). In short, Nunc maxisorp flat bottom 96 plates (Thermo scientific, Breda, Netherlands) were coated with 10 μg/mL heparan sulfate from bovine kidney (HSBK) (Sigma-Aldrich, Zwijndrecht, Netherlands) in optimized HS coating buffer, overnight in a humidified chamber at RT. Subsequently, plates were blocked for minimal 2 h with 1% bacto-gelatin (Difco laboratories, Detroit, Michigan, United States) in PBS at RT whereupon HPSE1 inhibitors were added to the plate with a standard amount of recombinant HPSE1 in HPSE1 buffer. Remaining HSBK was detected with primary mouse […] IgM HS antibody JM403 (Amsbio, Abingdon, United Kingdom, cat. No. #370730-S, RRID: AB_10890960, 1 μg/mL in PBST) for 1 h at RT. Subsequently, plates were incubated with secondary goat anti-mouse IgM HRP antibody (Southern Biotech, Uden, Netherlands, cat. No. #1020–05, RRID: AB_2794201, dilution 1:10,000 in PBST) for 1 h at RT. Finally, 3,3′,5,5′-tetramethylbenzidine (TMB) substrate (Invitrogen, Breda, Netherlands) was added and reaction was stopped by addition of 2 M sulfuric acid, and absorbance was measured at 450 nm.
# [3] = test system: LPS-induced glomerulonephritis in wt C57Bl/6J mice; assay: LPS-induced glomerulonephritis mouse model; assay type: in vivo; conditions: for cortical IL-6 mRNA expression: Figure 5F, IL-6 not detectable in control mice
# Method: Experimental LPS-induced glomerulonephritis was induced in eight-to twelve-week-old wt C57Bl/6J mice by an i. p. injection with 80 µg LPS (O111:B4; Sigma-Aldrich Chemie, Zwijndrecht, Netherlands) as described previously ([Garsen et al., 2016a]). The mice were treated with heparanase 2 (HPSE2) protein and an equal mix of HPSE2 peptides (Thermo Fisher Scientific, Breda, Netherlands) 381–410, 391–420, and 401–430, amino acids respectively, via repeated i. v injection with 12 h intervals starting 6 h after LPS injection. Mice were sacrificed 48 h after LPS injection.
# (§1) Kidneys were collected and snap frozen in liquid nitrogen and urine was collected after 18 h housing in metabolic cages upon termination. Urinary albumin was measured by radial immunodiffusion (Mancini) as described previously ([Garsen et al., 2016a]). Blood urea nitrogen (BUN) and urinary/plasma creatinine concentrations were determined routinely in our clinical diagnostic facility.
# (§2) RNA was isolated from the kidney cortex using RNeasy mini kit (Qiagen) and 1 µg of RNA was reverse transcribed into cDNA using the Transcription First Strand cDNA synthesis kit (Roche, Woerden, Netherlands) according to manufacturer’s instructions. Quantitative PCR was performed with SYBR Green (Roche, Woerden, Netherlands) on a CFX 96 C1000 Thermal Cycler (Bio-rad, Lunteren, Netherlands) to determine expression levels. Data was analysed using glyceraldehyde-3-phosphate dehydrogenase (GAPDH) as housekeeping gene and by making use of the delta-delta CT method.
# [4] = test system: mice induced with LPS; conditions: LPS co-injected with protein compared to LPS alone, upon 2 h; ref Kiyan et al., 2019; cited from earlier work
# Method: Since HPSE1 is also involved in inflammation ([Goodall et al., 2014]; [Lever et al., 2014]), the increased HPSE1 and TNF-α expression might be prevented if HPSE2 is administered concomitant with LPS at induction of experimental glomerulonephritis. This effect has been shown previously by Kiyan et al. in the CLP sepsis mouse model. They reported decreased plasma levels of IL-6 and TNF-α in mice induced with LPS co-injected with full-length HPSE2 protein compared to LPS alone already upon 2 h. Unfortunately, no assessment of cytokine or HPSE1 mRNA expression in the renal cortex or other tissues ...
# [5] = test system: STZ-induced diabetic nephropathy in wt DBA/2J mice; assay: Streptozotocin (STZ)-induced type 1 diabetic nephropathy mouse model; assay type: in vivo
# Method: Experimental streptozotocin (STZ)-induced type 1 diabetes was induced in six-to eight-week-old wt DBA/2J mice (Charles River, Germany). Mice were first fasted for 4 h whereafter the mice were injected i. p. with 50 mg/kg STZ (Sigma-Aldrich Chemie, Zwijndrecht, Netherlands) in 250 mM sodium citrate buffer (pH 4.5), whereas controls were injected with sodium citrate buffer alone for 5 consecutive days. Blood glucose levels were measured twice a week using the ACCU-CHEK Aviva Blood Glucose Meter (Roche Diagnostics, Almere, Netherlands) to monitor that blood glucose levels would not raise above 25 mmol/L. Mice were implanted under the skin half an insulin pellet (LinShin Canada, Toronto, Canada) when their blood glucose level did raise above 25 mmol/L. The mice were treated with HPSE2 protein via continuous s. c infusion with an osmotic mini pump 8 weeks after the final injection with STZ for a duration of 4 weeks. Mice were sacrificed 12 weeks after induction of diabetes.
# as §1, §2
molecule,measurement,setting,value
PI-88,"HPSE1 inhibition in animal models for glomerular diseases, such as DN",[1],effective HPSE1 inhibitor
"GVVTTSAGGTNNLSDSYAAGFLWLNTLGML [HPSE2 peptide 381–410, HPSE2-derived peptide, AA region 381–410]","inhibition of HPSE1 activity, first screening experiment of all 30 HPSE2 peptides",[2],showed great promise as inhibitor of HPSE1 activity; also recorded: most effective
"FLWLNTLGMLANQGIDVVIRHSFFDHGYNH [HPSE2 peptide 401–430, HPSE2-derived peptide, AA region 401–430]","inhibition of HPSE1 activity, first screening experiment of all 30 HPSE2 peptides",[2],showed great promise as inhibitor of HPSE1 activity
same,"inhibition of HPSE1 activity, first screening experiment of all 30 HPSE2 peptides",[2]; listed as 401–430,most effective
B1,plasma creatinine levels,"[3]; 80 µg LPS i.p., repeated i.v. injection at 12 h intervals starting 6 h after LPS, 48 h, n ≥ 4, Figure 5B",significantly ameliorated
same,urinary albumin creatinine ratio,"[3]; 80 µg LPS i.p., repeated i.v. injection at 12 h intervals starting 6 h after LPS, 48 h, n ≥ 4, Figure 5C",significantly ameliorated; also recorded: dose response inhibitory effect
same,blood urea nitrogen (BUN),"[3]; 80 µg LPS i.p., repeated i.v. injection at 12 h intervals starting 6 h after LPS, sacrificed 48 h after LPS, mean ± SEM, n ≥ 4, Figure 5A",significantly ameliorated; also recorded: dose response inhibitory effect
same,cortical HPSE1 mRNA expression,"[3]; LPS model, 2 days, qPCR, GAPDH housekeeping, Figure 5D",unaltered
same,cortical TNF-α mRNA expression,"[3]; LPS model, 2 days, qPCR, Figure 5E",unaltered
same,cortical IL-6 mRNA expression,"[3]; LPS model, 2 days, qPCR",decrease
same,cortical IL-6 mRNA expression,"[3]; LPS model, 2 days, qPCR, listed as HPSE2",near-significantly decreased
same,plasma levels of IL-6,[4],decreased
same,plasma levels of TNF-α,[4],decreased
same,urinary albumin creatinine ratio,"[5]; STZ 50 mg/kg i.p. 5 days, continuous s.c. infusion by osmotic mini pump from 8 weeks after STZ for 4 weeks, sacrificed at 12 weeks, n ≥ 5, Figure 6C",significantly ameliorated
same,cortical HPSE1 mRNA expression,"[5]; STZ model, 12 weeks, qPCR, Figure 6D",unaltered
same,cortical TNF-α mRNA expression,"[5]; STZ model, 12 weeks, qPCR, Figure 6E",unaltered
same,cortical IL-6 mRNA expression,"[5]; STZ model, 12 weeks, qPCR, with versus without treatment, Figure 6F",did not show a significant difference
same,dose response inhibition of recombinant human HPSE1,"[2]; Figure 4, HS from bovine kidney coated plates, remaining HS detected with JM403, absorbance 450 nm",dose-dependent inhibition of HPSE1 activity
